Data from patent US20150086555A1.

Columns and labels:
Conditions in all cases: remark: other sources report otherwise
[1] = target: recombinant soluble homotrimeric HA of A/Solomon Islands/3/06 (H1N1) (Influenza A virus A/Solomon Islands/3/2006(H1N1)); experiment: trimeric HA microarray, transfection supernatant set 2
[2] = target: recombinant soluble homotrimeric HA of A/Anhui/1/05 (H5N1) (Influenza A virus A/Anhui/1/2005(H5N1)); experiment: as above
[3] = target: T1, recombinant soluble homotrimeric HA of A/Egypt/3300-NAMRU3/08 (H5N1) (Influenza A virus A/Egypt/3300-NAMRU3/2008(H5N1)); experiment: as above
[4] = target: recombinant soluble homotrimeric HA of A/chicken/Vietnam/NCVD-016/08 (H5N1) (Influenza A virus A/chicken/Vietnam/NCVD-016/2008(H5N1)); experiment: as above
[5] = target: recombinant soluble homotrimeric HA of A/Hong Kong/2108/03 (H9N2) (Influenza A virus A/HK/2108/2003(H9N2)); experiment: as above
[6] = target: recombinant soluble homotrimeric HA of A/Japan/305/57 (H2N2) (Influenza A virus A/Japan/305/1957(H2N2)); experiment: as above
[7] = target: recombinant soluble homotrimeric HA of A/Netherlands/219/03 (H7N7) (Influenza A virus A/Netherlands/219/03(H7N7)); experiment: as above
[8] = target: recombinant soluble homotrimeric HA of A/Vietnam/1203/04 (H5N1) (Influenza A virus A/VietNam/1203/2004(H5N1)); experiment: as above
[9] = target: recombinant soluble homotrimeric HA of A/Indonesia/5/05 (H5N1) (Influenza A virus A/Indonesia/5/2005(H5N1)); experiment: as above
[10] = target: recombinant soluble homotrimeric HA of A/South Carolina/1/18 (H1N1) (Influenza A virus A/South Carolina/1/18 (H1N1)); experiment: as above
[11] = target: recombinant soluble homotrimeric HA of A/California/4/09 (H1N1) (Influenza A virus A/California/04/2009(H1N1)); experiment: as above
[12] = target: recombinant homotrimeric HA A/swine/Ontario/01911-2/99 H4N6 (Influenza A virus A/Swine/Ontario/01911-2/99 (H4N6)); experiment: protein microarray, purified IgG, trimeric HA
[13] = target: recombinant soluble homotrimeric HA, A/South Carolina/1/18 H1N1 (Influenza A virus A/South Carolina/1/18 (H1N1)); experiment: microarray, transfection SN IgG, trimeric HA
[14] = target: recombinant soluble homotrimeric HA, A/Anhui/1/05 H5N1 (Influenza A virus A/Anhui/1/2005(H5N1)); experiment: microarray, transfection SN IgG, trimeric HA
[15] = target: recombinant soluble homotrimeric HA, A/Egypt/3300-NAMRU3/08 H5N1 (Influenza A virus A/Egypt/3300-NAMRU3/2008(H5N1)); experiment: microarray, transfection SN IgG, trimeric HA
[16] = target: recombinant soluble homotrimeric HA, A/Solomon Islands/3/06 H1N1 (Influenza A virus A/Solomon Islands/3/2006(H1N1)); experiment: microarray, transfection SN IgG, trimeric HA
[17] = target: recombinant soluble homotrimeric HA, A/chicken/Vietnam/NCVD-016/08 H5N1 (Influenza A virus A/chicken/Vietnam/NCVD-016/2008(H5N1)); experiment: microarray, transfection SN IgG, trimeric HA
[18] = target: recombinant soluble homotrimeric HA, A/Vietnam/1203/04 H5N1 (Influenza A virus A/VietNam/1203/2004(H5N1)); experiment: microarray, transfection SN IgG, trimeric HA
[19] = target: recombinant soluble homotrimeric HA, A/northern shoveler/California/HKWF115/07 H6N4 (Influenza A virus A/northern shoveler/California/HKWF115/2007(H6N1)); experiment: microarray, transfection SN IgG, trimeric HA
[20] = target: recombinant soluble homotrimeric HA, A/duck/Yangzhou/02/05 H8N4 (Influenza A virus A/duck/Yangzhou/02/2005(H8N4)); experiment: microarray, transfection SN IgG, trimeric HA
[21] = target: recombinant soluble homotrimeric HA, A/California/4/09 H1N1 (Influenza A virus A/California/04/2009(H1N1)); experiment: microarray, transfection SN IgG, trimeric HA
[22] = target: recombinant soluble homotrimeric HA, A/Hong Kong/156/97 H5N1 (Influenza A virus A/Hong Kong/156/97 (H5N1)); experiment: microarray, transfection SN IgG, trimeric HA
[23] = target: recombinant soluble homotrimeric HA, A/Wisconsin/67/05 H3N2 (Influenza A virus A/Wisconsin/67/2005(H3N2)); experiment: microarray, transfection SN IgG, trimeric HA
[24] = target: recombinant soluble homotrimeric HA, A/Japan/305/57 H2N2 (Influenza A virus A/Japan/305/1957(H2N2)); experiment: microarray, transfection SN IgG, trimeric HA
[25] = target: recombinant soluble homotrimeric HA, A/Indonesia/5/05 H5N1 (Influenza A virus A/Indonesia/5/2005(H5N1)); experiment: microarray, transfection SN IgG, trimeric HA
[26] = target: T1, recombinant soluble homotrimeric HA of …; experiment: HA microarray, BCC supernatant
[27] = target: recombinant homotrimeric HA A/duck/Yangzhou/02/05 H8N4 (Influenza A virus A/duck/Yangzhou/02/2005(H8N4)); experiment: protein microarray, purified IgG, trimeric HA

B1: TCN-522 (3212_I12) (antibody, V domains shown)
VH: QVQLQQWGAGLLKPSETLSLTCTVSGGSLTDYSWNWIRQPPGKGLEWIGDTLHNGYTNYNPSLRGRVSISIDTSKNQVSLRLTSVTAADTALYYCARGSGGYGGFDYFGKLRTWDFWGQGTLVTVSS
VL: DIQLTQSPSSLSASVGDRVTITCRASQGIRNDLGWYQQKPGNAPKRLIFGASSLQSGVPSRFSGSGSGTEFTLTISSLQPEDFATYYCLQHNSYPYTFGQGTKLEIK
B1 was tested, and the Trimeric HA Binding: RLU [1] was 17300 RLU, the Trimeric HA Binding: RLU [2] was 2030 RLU and the Trimeric HA Binding: RLU [3] was 55400 RLU. The Trimeric HA Binding: RLU [4] was 49300 RLU, the Trimeric HA Binding: RLU [5] was 203 RLU and the Trimeric HA Binding: RLU [6] was 11900 RLU. The Trimeric HA Binding: RLU [7] was 2170 RLU, the Trimeric HA Binding: RLU [8] was 48200 RLU and the Trimeric HA Binding: RLU [9] was 50500 RLU. For the same binder, the Trimeric HA Binding: RLU [10] was 39600 RLU, the Trimeric HA Binding: RLU [11] was 37500 RLU and the Trimeric HA Binding: RLU [12] was 73 RLU.

B2: TCN-555 (5246_L16) (antibody, V domains shown)
VH: QVQLVQSGAEVKRPGSSVKVSCTASGGIFRKNAISWVRQAPGQGLEWMGGIIAVFNTANYAQKFQNRVKITADESGNTAYMELSSLTSDDTAVYYCASHPKYFYGSGSYPDFWGQGTLVTVSS
VL: QSALTQPRSVSGSPGQSITISCTGGSSDIGASNSVSWYQQHPGKAPKLVIFDVTERPSGVPHRFSGSKSGNTASLTVSGLQPDDEADYFCCAYGGKYLVVFGGGTKVTVL
With B2 the Trimeric HA Binding: RLU [13] was 48000 RLU, the Trimeric HA Binding: RLU [14] was 12200 RLU and the Trimeric HA Binding: RLU [15] was 20000 RLU. It also gave a Trimeric HA Binding: RLU [16] of 44600 RLU, a Trimeric HA Binding: RLU [17] of 35200 RLU and a Trimeric HA Binding: RLU [18] of 19300 RLU. The Trimeric HA Binding: RLU [19] was 28700 RLU, the Trimeric HA Binding: RLU [20] was 8540 RLU and the Trimeric HA Binding: RLU [21] was 20200 RLU. The Trimeric HA Binding: RLU [22] was 36300 RLU, the Trimeric HA Binding: RLU [23] was 14700 RLU and the Trimeric HA Binding: RLU [24] was 16700 RLU. It also gave a Trimeric HA Binding: RLU [25] of 33900 RLU, a Trimeric HA Binding: RLU [26] of 42700 RLU and a Trimeric HA Binding: RLU [27] of 375 RLU.

B3: TCN-563 (5237_B21) (antibody, V domains shown)
VH: QVQLAQSGAEVKRPGSSVKVSCTASGGIFRKNAISWVRQAPGQGLEWMGGIIAVFNTANYAQKFQGRVKITADESGNTAYMELSSLRSDDTAVYYCASHPKYFYGSGSYPDFWGQGTLVTVSS
VL: QSALTQPRSVSGSPGQSVTISCTGSSSDVGASNSVSWYQQHPGKAPKLVIYDVTERPSGVPHRFSGSKSGNTASLTVSGLQPEDEADYFCCAYGGKYLVVFGGGTKVTVL
In the case of B3, the Trimeric HA Binding: RLU [1] is reported as 26500 RLU, the Trimeric HA Binding: RLU [2] is reported as 1570 RLU and the Trimeric HA Binding: RLU [3] is reported as 23900 RLU. The Trimeric HA Binding: RLU [4] was 36300 RLU, the Trimeric HA Binding: RLU [5] was 364 RLU and the Trimeric HA Binding: RLU [6] was 11200 RLU. For the same binder, the Trimeric HA Binding: RLU [7] was 5420 RLU, the Trimeric HA Binding: RLU [8] was 31500 RLU and the Trimeric HA Binding: RLU [9] was 47300 RLU. For the same binder, the Trimeric HA Binding: RLU [10] was 17800 RLU, the Trimeric HA Binding: RLU [11] was 21200 RLU and the Trimeric HA Binding: RLU [26] was 27500 RLU.

B4: TCN-504 (3251_K17) (antibody, V domains shown)
VH: QVQLQESGPGLVKPSETLSLTCAVSGVSISNIDFYWGWIRQPPGKGLEWIGNIYYTGITFYNPSLSSRVAISIDTSKNQFSLTLTSVTAADTAMYYCARHYGDSEAINDAFDIWGQGTMLTVSS
VL: EIVMTQSPATLSVSPGERATLSCRASQSVGNSLAWYQQRPGQAPRLLIYGASTRATGIPPRFSGSGSGTEFTLTISSLQTEDFAVYYCQQYINWRPLSFGGGTKVEIK
For B4, the Trimeric HA Binding: RLU [1] was 31400 RLU, the Trimeric HA Binding: RLU [2] was 31000 RLU and the Trimeric HA Binding: RLU [3] was 21400 RLU. It also gave a Trimeric HA Binding: RLU [4] of 27300 RLU, a Trimeric HA Binding: RLU [6] of 22600 RLU and a Trimeric HA Binding: RLU [7] of 19300 RLU. For the same binder, the Trimeric HA Binding: RLU [8] was 15000 RLU, the Trimeric HA Binding: RLU [9] was 19700 RLU and the Trimeric HA Binding: RLU [10] was 24700 RLU. It also gave a Trimeric HA Binding: RLU [11] of 15600 RLU, a Trimeric HA Binding: RLU [13] of 32000 RLU and a Trimeric HA Binding: RLU [14] of 37200 RLU. The Trimeric HA Binding: RLU [15] was 20600 RLU, the Trimeric HA Binding: RLU [16] was 30100 RLU and the Trimeric HA Binding: RLU [17] was 34200 RLU. The Trimeric HA Binding: RLU [18] was 21500 RLU, the Trimeric HA Binding: RLU [20] was 35100 RLU and the Trimeric HA Binding: RLU [21] was 17600 RLU. For the same binder, the Trimeric HA Binding: RLU [22] was 26600 RLU, the Trimeric HA Binding: RLU [23] was 38100 RLU and the Trimeric HA Binding: RLU [24] was 23300 RLU. It also gave a Trimeric HA Binding: RLU [25] of 18500 RLU.

B5: TCN-527 (5086_C06) (antibody, V domains shown)
VH: QVQLQESGPGLVKPSETLSLNCAVSGGSISNYYWSWIRQPPGKGLEWIGYISYNGRPKYNPSLTSRVTISVDTSKDQFSLELRSVTAADTALYYCARETRFGELLSPYDAFEIWGQGTMVTVSS
VL: DIQMTQSPSSLSASVGDRVTMTCRASQNIRSYLNWYQQRPGTAPKLLIYAASTLHSGVPSRFSGGGSGTDFTLTINNLQPEDFASYYCQQSYDNPQTFGQGTKVEIK
Binder B5 has a Trimeric HA Binding: RLU [1] of 19700 RLU, a Trimeric HA Binding: RLU [2] of 15200 RLU and a Trimeric HA Binding: RLU [3] of 23600 RLU. For the same binder, the Trimeric HA Binding: RLU [4] was 20100 RLU, the Trimeric HA Binding: RLU [5] was 25500 RLU and the Trimeric HA Binding: RLU [6] was 20800 RLU. For the same binder, the Trimeric HA Binding: RLU [7] was 49100 RLU, the Trimeric HA Binding: RLU [8] was 20600 RLU and the Trimeric HA Binding: RLU [9] was 23400 RLU. It also gave a Trimeric HA Binding: RLU [10] of 48100 RLU, a Trimeric HA Binding: RLU [11] of 21500 RLU and a Trimeric HA Binding: RLU [27] of 26000 RLU. For the same binder, the Trimeric HA Binding: RLU [12] was 11100 RLU.

B6: TCN-557 (5081_A04) (antibody, V domains shown)
VH: QVQLVQSGAEVKKPGASVKVSCKASGHTFTGYYIHWVRQAPGQGLEWMGWINPDSGATSSAQNFQGRVTMTGDTSSSTAYMELSRLSFDDTAVYYCARVLFTSPFDFWGEGTLVTVSS
VL: QAVVTQEPSLAVSPGGTVTLTCGSSTGAVTRGHYPYWFQQKPGQAPRALIYDSAGNRHSWTPARFSGSLLGGKAALTLSGAQPEDEAEYYCLLSYSGVWVFGGGTKLTVL
Binder B6 has a Trimeric HA Binding: RLU [13] of 44900 RLU, a Trimeric HA Binding: RLU [14] of 20000 RLU and a Trimeric HA Binding: RLU [15] of 26400 RLU. The Trimeric HA Binding: RLU [16] was 27000 RLU, the Trimeric HA Binding: RLU [17] was 23300 RLU and the Trimeric HA Binding: RLU [18] was 21300 RLU. For the same binder, the Trimeric HA Binding: RLU [19] was 49600 RLU, the Trimeric HA Binding: RLU [20] was 24000 RLU and the Trimeric HA Binding: RLU [21] was 44400 RLU. The Trimeric HA Binding: RLU [22] was 27100 RLU, the Trimeric HA Binding: RLU [23] was 46100 RLU and the Trimeric HA Binding: RLU [24] was 27300 RLU. For the same binder, the Trimeric HA Binding: RLU [25] was 22200 RLU, the Trimeric HA Binding: RLU [27] was 27200 RLU and the Trimeric HA Binding: RLU [12] was 19200 RLU.
